Test results from paper PMC7586228.

Legend:
[1] = Golgi residence time, live imaging with CHX; conditions: glycan lost; control: DMSO
[2] = immunofluorescence, colocalisation with GM130; conditions: glycan lost; control: DMSO

transferrin receptor (TfR): GalNAc-O-Bn
localisation_or_trafficking [1]: increases
localisation_or_trafficking [2]: changes
